Results: US20200079851A1 (University of Texas, published 2020)
Blank lines part the entries; values can stand above or below the binder they belong to.

Tests used:
human LILRB4 [1] = target: T1, human LILRB4 (human, UniProt Q8NHJ6 22-259, limits assumed); experiment: ELISA, OD450 against antibody concentration
T1 construct: also called leukocyte immunoglobulin-like receptor subfamily B member 4

SR = target: T2, SR; experiment: matrix of binding to LILRB4 domain-Fc fusions (FIG. 47); ELISA per paragraph 433
T2 construct: also called LILRB4 SR-hIgG1-Fc; stalk region of LILRB4 as Fc fusion

D2 = target: T3, D2; experiment: as above
T3 construct: also called LILRB4 D2-hIgG1-Fc; second Ig-like domain of LILRB4 as Fc fusion

human LILRB4 [2] = target: T1, human LILRB4; experiment: ELISA
LILRB1 = target: T4, LILRB1 (human, UniProt Q8NHL6 24-458, limits assumed); experiment: cross-reactivity test on the LILRBs (ELISA per paragraph 433)
T4 construct: also called leukocyte immunoglobulin-like receptor subfamily B member 1

LILRB2 [3] = target: T5, LILRB2 (human, UniProt Q8N423 22-458, limits assumed); experiment: as above
T5 construct: also called leukocyte immunoglobulin-like receptor subfamily B member 2

LILRB5 [4] = target: T6, LILRB5 (human, UniProt O75023 24-458, limits assumed); experiment: cross-reactivity ELISA (FIG. 46)
LILRB3 [5] = target: T7, LILRB3 (human, UniProt O75022 24-443, limits assumed); experiment: cross-reactivity ELISA (FIG. 46)
T7 construct: also called leukocyte immunoglobulin-like receptor subfamily B member 3

human LILRB4 [6] = target: T1, human LILRB4; experiment: ELISA, OD450 against antibody concentration; remark: listed apart in the source
[7] = target: T8, LILRB4 D1 (first Ig-like domain) Fc fusion protein (human, UniProt Q8NHJ6 27-118); experiment: matrix of binding to LILRB4 domain-Fc fusions (FIG. 47); ELISA per paragraph 433
T8 construct: also called D1 of LILRB4; not shown: Fc part

D2-SR-Fc = target: T9, D2-SR-Fc; experiment: ELISA, mAb titrated
T9 construct: also called D2-SR-WT

D2-SR-M16(210-259) = experiment: ELISA, mAb 139 titrated
human LILRB4 [8] = target: T1, human LILRB4; experiment: ELISA, OD450 against antibody concentration; remark: listed apart in the source
LILRB5 [9] = target: T6, LILRB5; experiment: cross-reactivity test on the LILRBs (ELISA per paragraph 433)
LILRB3 [10] = target: T7, LILRB3; experiment: as above
human LILRB4 [11] = target: T1, human LILRB4; experiment: ELISA, OD450 against antibody concentration; remark: listed apart in the source
human LILRB4 [12] = target: T1, human LILRB4; experiment: ELISA, OD450 against antibody concentration; remark: listed apart in the source
human LILRB4 [13] = target: T1, human LILRB4; experiment: ELISA, OD450 against antibody concentration; remark: listed apart in the source
human LILRB4 [14] = target: T1, human LILRB4; experiment: ELISA, mAb titrated on the WT protein of the LILRB4 mutant series of FIG. 52 (construct limits not stated)
LILRB4-ECD-Fc = target: T10, LILRB4-ECD-Fc (human, UniProt Q8NHJ6 27-259); experiment: ELISA, mAb titrated
T10 construct: also called LILRB4-Fc; LILRB4 ECD-Fc fusion protein; not shown: Fc part

[15] = target: T8, LILRB4 D1 (first Ig-like domain) Fc …; experiment: ELISA, mAb titrated
human LILRB4 [16] = target: T1, human LILRB4; experiment: ELISA, OD450 against antibody concentration; remark: listed apart in the source
human LILRB4 [17] = target: T1, human LILRB4; experiment: ELISA, OD450 against antibody concentration; remark: listed apart in the source
LILRB2 [18] = target: T5, LILRB2; experiment: flow cytometry on LILRB2-overexpressing 293T cells, mAb at 2 ug/ml
LILRB5 [19] = target: T6, LILRB5; experiment: reactivity table, assay not named on the sheet
human LILRB4 [20] = target: T1, human LILRB4; experiment: reactivity table, assay not named on the sheet
LILRB3 [21] = target: T7, LILRB3; experiment: reactivity table, assay not named on the sheet

T7 sequence (O75022 24-443 limits assumed): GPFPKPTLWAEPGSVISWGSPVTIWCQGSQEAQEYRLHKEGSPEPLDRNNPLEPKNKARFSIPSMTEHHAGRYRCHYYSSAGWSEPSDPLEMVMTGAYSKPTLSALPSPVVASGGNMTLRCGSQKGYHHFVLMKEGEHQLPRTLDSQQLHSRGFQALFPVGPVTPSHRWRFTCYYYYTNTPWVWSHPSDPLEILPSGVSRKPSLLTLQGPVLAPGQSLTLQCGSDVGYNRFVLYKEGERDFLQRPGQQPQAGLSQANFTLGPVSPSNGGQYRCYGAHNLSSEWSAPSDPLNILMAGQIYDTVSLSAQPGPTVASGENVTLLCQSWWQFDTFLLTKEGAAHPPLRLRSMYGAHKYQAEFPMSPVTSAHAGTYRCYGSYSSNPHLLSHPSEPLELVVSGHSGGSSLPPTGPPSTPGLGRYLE
T4 sequence (Q8NHL6 24-458 limits assumed): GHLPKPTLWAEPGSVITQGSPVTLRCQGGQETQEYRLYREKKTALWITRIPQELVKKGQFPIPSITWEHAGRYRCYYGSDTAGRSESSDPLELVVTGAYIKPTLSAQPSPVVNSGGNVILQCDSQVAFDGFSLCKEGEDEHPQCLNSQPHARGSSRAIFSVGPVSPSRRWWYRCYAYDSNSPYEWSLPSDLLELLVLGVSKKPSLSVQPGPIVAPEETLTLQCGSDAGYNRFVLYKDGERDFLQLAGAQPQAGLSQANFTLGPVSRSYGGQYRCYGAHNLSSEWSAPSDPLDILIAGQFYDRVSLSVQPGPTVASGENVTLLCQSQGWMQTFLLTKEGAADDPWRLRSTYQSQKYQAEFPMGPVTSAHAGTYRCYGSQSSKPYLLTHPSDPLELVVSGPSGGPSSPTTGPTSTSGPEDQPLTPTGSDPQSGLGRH
T6 sequence (O75023 24-458 limits assumed): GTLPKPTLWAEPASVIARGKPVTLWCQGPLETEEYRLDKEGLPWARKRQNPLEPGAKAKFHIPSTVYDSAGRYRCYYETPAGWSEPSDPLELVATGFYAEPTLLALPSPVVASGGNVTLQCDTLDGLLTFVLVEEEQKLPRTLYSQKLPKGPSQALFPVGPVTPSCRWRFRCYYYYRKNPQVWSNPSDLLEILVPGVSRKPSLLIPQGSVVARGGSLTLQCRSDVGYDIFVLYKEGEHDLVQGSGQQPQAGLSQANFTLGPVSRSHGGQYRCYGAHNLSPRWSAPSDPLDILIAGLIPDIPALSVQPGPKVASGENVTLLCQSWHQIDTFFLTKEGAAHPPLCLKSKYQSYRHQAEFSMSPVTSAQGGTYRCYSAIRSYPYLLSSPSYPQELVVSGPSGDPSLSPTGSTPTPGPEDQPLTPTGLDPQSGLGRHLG
T3 sequence (fusion chain, as listed by the source): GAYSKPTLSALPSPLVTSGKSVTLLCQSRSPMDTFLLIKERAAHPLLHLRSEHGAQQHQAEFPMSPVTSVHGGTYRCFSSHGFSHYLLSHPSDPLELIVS
T2 sequence (fusion chain, as listed by the source): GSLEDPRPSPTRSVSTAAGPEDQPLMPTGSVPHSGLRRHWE
T5 sequence (Q8N423 22-458 limits assumed): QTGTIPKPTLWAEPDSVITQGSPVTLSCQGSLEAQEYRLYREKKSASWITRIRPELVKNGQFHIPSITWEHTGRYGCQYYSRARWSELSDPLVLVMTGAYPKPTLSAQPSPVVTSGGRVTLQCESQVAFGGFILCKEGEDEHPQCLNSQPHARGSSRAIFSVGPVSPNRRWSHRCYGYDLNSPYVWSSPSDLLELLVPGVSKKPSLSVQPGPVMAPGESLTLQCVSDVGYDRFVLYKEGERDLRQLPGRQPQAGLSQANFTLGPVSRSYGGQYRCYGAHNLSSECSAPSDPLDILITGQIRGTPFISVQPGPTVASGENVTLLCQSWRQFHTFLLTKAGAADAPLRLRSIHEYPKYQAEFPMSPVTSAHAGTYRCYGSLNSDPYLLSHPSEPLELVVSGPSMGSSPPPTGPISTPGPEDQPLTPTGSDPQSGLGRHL
T8 sequence (Q8NHJ6 27-118): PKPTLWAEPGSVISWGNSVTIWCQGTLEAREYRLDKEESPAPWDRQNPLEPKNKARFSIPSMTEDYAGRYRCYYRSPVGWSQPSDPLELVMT
T9 sequence (Q8NHJ6 119-259): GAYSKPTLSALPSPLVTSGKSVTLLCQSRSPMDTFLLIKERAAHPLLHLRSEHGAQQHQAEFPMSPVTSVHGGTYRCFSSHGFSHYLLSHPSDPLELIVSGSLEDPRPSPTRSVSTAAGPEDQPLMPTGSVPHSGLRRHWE
D2-SR-M16(210-259), sequence (chain, as listed by the source): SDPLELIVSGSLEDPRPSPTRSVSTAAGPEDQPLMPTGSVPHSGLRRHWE

- EC50 (human LILRB4 [1]): 0.00764 µg/mL
B1: anti-LILRB4 rabbit monoclonal antibody #214 (antibody, V domains shown)
VH: QSVKESGGRLVTPGTPLTLTCTVSGFSLSSYWMHWVRQAPGKGLEWVGVVSVSGNFYYATWAKGRFTISKTSTTVDLKITSPTIEDTAFYFCTMSFALWGQGTLVTISS
VL: ELVMTQTASPVSAAVGGTVTINCQSSQSVYSNNNLGWLKQKPGQPPKELIYYASTLASGVPSRFKGSGSGTQFTLTISDLECDDAATYYCVGGYGCSSADCSVFGGGTEVEIK
notes: Rabbit mAb

- EC50 (human LILRB4 [12]): 0.02 µg/mL
- EC50 (human LILRB4 [2]): 134 pM
B5: anti-LILRB4 rabbit monoclonal antibody #71-1 (antibody, V domains shown)
VH: QSVEESGGGLVKPGASLTLTCTASGFSFSSSYHMCWVRQAPGKGLEWIGCIATGYGSTYYASWAKGRFTISKTSSTTVTLQVPSLTAADTATCFCARGYYRYTSDSYGYFDLWGPGTLVTISS
VL: ELDLTQTASPVSAAVGGTVTVNCQASQSISSGYLSWYQQKPGQPPKLLIYYASRLASGVPSRFSGSGSGTEYTLTISGVQCDDAATYYCLYVSYSGTTTDNAFGGGTDVEIK
notes: Rabbit mAb

- % of cells in the positive gate (LILRB2 [18]): 18.7%
- binding result (LILRB5 [19]): binds
- binding result (human LILRB4 [20]): binds
- binding result (LILRB3 [21]): binds
B9: anti-LILRB mAb C39 (antibody, V domains shown)
VH: EVQLVESGGGLVQPGGSLKLSCAASGFTFSSYGMSWVRQTPDKRLELVATIDSNGGGTYYPDSVKGRFTISRDNAKNTLYLQMSSLKSEDTAMHYCARDGGGSYGYYYAMDYWGQGTSVTVSS
VL: DIVMSQSPSSLAVSAGEKVTMRCKSSQSLLNSRTRKSYLAWYQQKSGQSPKLLIYWASTRESGVPDRFTGSGSGTDFTLTISSVQAEDLAVYYCKQSYNLPWTFGGGTKLEIK
notes: mAb against LILRB2

Further lines, the binder ahead of its results:

B2: anti-LILRB4 rabbit monoclonal antibody #210 (antibody, V domains shown)
VH: EQSVEESGGRLVTPGTPLTLTCTVSGFSLSSYIMGWVRQARGKGLEYIGAINTDGATYYATWAKGRFTISRTSTTVHLKVTSPTTEDTATYFCARSLAPGDSNINLWGQGTLVTISS
VL: ELVLTQTPSPVSAAVGGTVTISCQSSESVYRNNRLAWYQQKPGQPPKRLIYLASTLASGVPSRFKGSGSGTQFTLTISDVQCDDAAAYYCAGDSGVGIIAFGGGTEVEIK
- binding result (SR): no binding
- binding result (D2): no binding
- EC50 (human LILRB4 [2]): 99.7 pM
- binding result (LILRB1): no binding
- binding result (LILRB2 [3]): no binding
- binding result (LILRB5 [4]): binds
- binding result (LILRB3 [5]): binds
- EC50 (human LILRB4 [6]): 0.0149 µg/mL

B3: anti-LILRB4 rabbit monoclonal antibody #139 (antibody, V domains shown)
VH: EQSLEESGGRLVTPGTPLTLTCTVSGFSLNSYAMAWVRQAPGKGLEWIGIIGLSTMTYYASWVNGRFTISKTSTTVDLKMTSLTTEDTATYFCVRNDVYWAFNLWGQGTLVTVSS
VL: ELDLTQTPSSVSAGVGGTVSISCQSSESVVNNHALSWYQQKPGQPPKLLIYKASTLASGVPSRFSGSGSGAQFTLTISGVQCDDAATYYCQGGFYSGISDYPFGGGTEVEIK
- binding result (SR): no binding
- binding result (D2): binds
- binding result [7]: no binding
- EC50 (human LILRB4 [2]): 83.2 pM
- binding result (LILRB1): no binding
- binding result (LILRB5 [4]): binds
- binding result (LILRB3 [5]): binds
- EC50 (read off the curve) (D2-SR-Fc): ~0.06 µg/mL
- binding result (D2-SR-M16(210-259)): no binding (tested: 1000 ng/ml)
- EC50 (human LILRB4 [8]): 0.0125 µg/mL

B4: anti-LILRB4 rabbit monoclonal antibody #129 (antibody, V domains shown)
VH: EQSVKESGGGLVKPGASLTLTCTASGFSFSSSYHMCWVRQAPGKGLEWIGCIATGYGSTYYASWAKGRFTISKTSSTTVTLQVPSLTAADTATCFCARGYYRYTSDSYGYFDLWGPGTLVTISS
VL: ELVLTQTASPVSAAVGGTVTVNCQASQSISSGYLSWYQQKPGQPPKLLIYYASRLASGVPSRFSGSGSGTEYTLTISGVQCDDAATYYCLYVSYDGTTTDNAFGGGTEVEIK
- binding result (SR): no binding
- binding result (D2): no binding
- EC50 (human LILRB4 [2]): 90.1 pM
- binding result (LILRB5 [9]): no binding
- binding result (LILRB1): no binding
- binding result (LILRB2 [3]): no binding
- binding result (LILRB3 [10]): no binding
- EC50 (human LILRB4 [11]): 0.0135 µg/mL

B6: anti-LILRB4 rabbit monoclonal antibody #128-3 (antibody, V domains shown)
VH: EQSLEESGGDLVTPGASLTLTCKASGIDFSNHYYIYWVRQAPGKGLEWIGCIFSGDSASTYYASWAKGRFTISKSSSPTVTLQMTSLTAADTATYFCARGMSTNDWASDLWGPGTMVTVSS
VL: ELVMTQTPASVSAAVGGTVTINCQASESINSIYLAWYQQKPGQRPKLLIYRASTLASGVSSRFKGSASGTGFTLTISDLECADAATYYCQQSYDWGDVENTFGGGTEVEIK
- binding result (SR): no binding
- binding result (D2): no binding
- EC50 (human LILRB4 [2]): 184 pM
- binding result (LILRB5 [9]): no binding
- binding result (LILRB1): no binding
- binding result (LILRB2 [3]): no binding
- binding result (LILRB3 [10]): no binding
- EC50 (human LILRB4 [13]): 0.0276 µg/mL
- EC50 (read off the curve) (human LILRB4 [14]): ~0.01 µg/mL
- EC50 (read off the curve) (LILRB4-ECD-Fc): ~0.02 µg/mL
- EC50 (read off the curve) [15]: ~0.02 µg/mL

B7: anti-LILRB4 rabbit monoclonal antibody #156-1 (antibody, V domains shown)
VH: QSVKESEGDLVKPGASLTLTCRASGFSFSSDYNMCWVRQAAGKGLEWIACIGVGTSGKTAYATWAKGRFTISRSSSTTVALQMTSLTVADTATYFCARPSYGSGGEGGGSGLWGPGTLVTISS
VL: ELDLTQTPASVSEPVGGTVTIKCQASQSIHSDLAWYQQKPGQRPKLLIYVASYLASGVPSRFSGSGSGTEYTLTISDLECADAATYYCQSTYYGSDYVGGAFGGGTEVVVK
notes: Rabbit mAb
- EC50 (human LILRB4 [16]): 0.0124 µg/mL
- EC50 (human LILRB4 [2]): 82.8 pM

B8: anti-LILRB4 rabbit monoclonal antibody #6 (antibody, V domains shown)
VH: QSVKESGGRLVTPGTPLTLTCTASGFSLSTYYIDWVRQAPGRGLEYIGVINPGGSAVYATWAKGRFTISRTSTTVDLKMTSLTTEDTATYFCARGWSRGDLWGQGTLVTISS
VL: ELDMTQTPSPVSAAVGGTVTIKCQSSQNVYDDDTLSWYQQKPGQPPKLLIYDASKLASGVPSRFKGSGSGTQFTLTISGVQCDDAATYYCLGVFHDAADNAFGGGTELEIK
notes: Rabbit mAb
- EC50 (human LILRB4 [17]): 0.0115 µg/mL
- EC50 (human LILRB4 [2]): 76.7 pM
